In patent US20080220049A1:
Residue numbers refer to the chain shown, from its start.

B1: A4 (designed binder)
chain: EVVAATPTSLLISWRHPHFPTRYYRITYGETGGNSPVQEFTVPLQPPTATISGLKPGVDYTITGYAVTDGYNDRLLFIPISINYRT
B2: G1 (designed binder)
chain: B1 chain with D69E, Y71R, D73G, L75E, F77M, I78V
B3: F1 (designed binder)
chain: B1 chain with D69S, Y71R, L75E, F77L, I78V
B4: F12 (designed binder)
chain: B1 chain with Y71R, D73G, R74H, L75E, F77M, I78T
B5: F10 (designed binder)
chain: B1 chain with D69M, G70A, Y71P, D73G, L75E, F77L, I78T
B6: E15 (designed binder)
chain: B1 chain with D69L, G70E, Y71P, D73G, L75Y, F77M, I78V
B7: E13 (designed binder)
chain: B1 chain with D69L, G70E, Y71Q, D73G, L75E, F77M, I78T
B8: A8 (designed binder)
chain: B1 chain with Y71L, D73G, R74K, L75Y, I78V
B9: E10 (designed binder)
chain: B1 chain with D69E, Y71R, D73G, L75E
B10: E22 (designed binder)
chain: B1 chain with D69L, Y71R, L75E, F77L, I78T
B11: A7 (designed binder)
chain: B1 chain with Y71P, D73N, L75E, F77I, I78V
B12: E12 (designed binder)
chain: B1 chain with D69F, G70A, Y71R, N72D, D73G, R74H, L75E, L76I, F77L, I78T
B13: EGE11 (Table 2 row SEQ ID NO 88) (designed binder)
chain: B1 chain with D69M, Y71K, L75E, F77L, I78T
B14: A9 (designed binder)
chain: B1 chain with D69E, Y71W, L75E, I78V
B15: EGE9 (designed binder)
chain: B1 chain with D69F, Y71P, L75E, F77L, I78T
B16: E21 (designed binder)
chain: B1 chain with D69W, N72K, R74H, L75E, F77L
B17: A10 (designed binder)
chain: B1 chain with D69F, Y71W, D73G, L75E, F77L, I78T
B18: D11 (designed binder)
chain: B1 chain with D69V, G70E, Y71R, D73G, R74H, L75K, I78T
B19: EGE10 (designed binder)
chain: B1 chain with D69M, Y71P, L75E, F77L, I78T

target: mouse vascular endothelial growth factor receptor-2 Fc chimera (Flk-1-Fc) (mouse) (UniProt P35918); experiment: radioactive equilibrium binding, 1 nM Flk-1-Fc
Sequence (P35918 20-762, change not shown): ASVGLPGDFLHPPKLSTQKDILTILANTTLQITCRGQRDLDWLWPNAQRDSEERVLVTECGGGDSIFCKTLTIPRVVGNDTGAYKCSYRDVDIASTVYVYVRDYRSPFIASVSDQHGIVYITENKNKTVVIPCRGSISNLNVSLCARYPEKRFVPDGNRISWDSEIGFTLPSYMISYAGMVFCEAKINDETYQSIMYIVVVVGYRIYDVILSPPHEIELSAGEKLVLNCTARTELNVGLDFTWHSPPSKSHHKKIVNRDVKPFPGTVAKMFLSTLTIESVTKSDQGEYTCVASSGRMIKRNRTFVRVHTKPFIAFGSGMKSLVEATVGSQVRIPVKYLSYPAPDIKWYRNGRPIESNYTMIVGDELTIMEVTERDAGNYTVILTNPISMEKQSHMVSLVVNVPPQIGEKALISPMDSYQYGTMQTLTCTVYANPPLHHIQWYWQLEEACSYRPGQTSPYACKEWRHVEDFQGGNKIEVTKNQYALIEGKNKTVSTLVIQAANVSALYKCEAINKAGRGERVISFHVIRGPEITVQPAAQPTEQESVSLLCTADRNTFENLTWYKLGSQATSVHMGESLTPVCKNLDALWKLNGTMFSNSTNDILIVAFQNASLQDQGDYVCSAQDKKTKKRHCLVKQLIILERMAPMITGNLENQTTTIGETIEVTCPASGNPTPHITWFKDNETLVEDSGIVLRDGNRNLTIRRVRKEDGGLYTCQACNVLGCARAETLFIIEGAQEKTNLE

Binding to 1 nM Flk-1, %	Binder
2%	B1
2%	B2
2%	B3
1%	B4
1%	B5
2%	B6
1%	B7
4%	B8
3%	B9
3%	B10
2%	B11
1%	B12
1%	B13
4%	B14
1%	B15
1%	B16
4%	B17
3%	B18
1%	B19
